Test results published in US5912183A, “Peptide inhibitors of mitogenesis and motogenesis” (Pharmacia & Upjohn S.p.A., priority 1993, dated 1999).
Residues, ends and D or L forms follow the SMILES beside them.

How the values were obtained:
GST-SH2 domain of Shc = biological target: T1, GST-SH2 domain of Shc (Homo sapiens, UniProt P29353); test: BIAcore binding of Shc SH2 domain to immobilised phosphopeptides; conditions: biosensor; for Affinity constant, ratio between dissociation rate (Kdiss) and association rate constants (Kass): Shc GST-SH2; for Binding of Shc SH2 domain to immobilised phosphopeptide: avidin-immobilized biotinylated phosphopeptide
T1 construct: using the Shc SH2 domain, expressed in bacteria as a GST-fusion protein; made in house; host or cells: bacteria
T1 sequence (P29353 488-579 limits assumed): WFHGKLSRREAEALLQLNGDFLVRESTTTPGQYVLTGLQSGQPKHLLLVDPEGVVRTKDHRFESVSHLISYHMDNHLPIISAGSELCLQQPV
Experimental: FIG. 13. […] The same concentration of Shc-SH2 was injected over two biosensor surfaces on which two phosphopeptides had been immobilised. Y1356P is derived from the sequence VNATY^1356 VNVK (SEQ. ID NO: 28) of the receptor tail; Y317P is derived from the sequence DDPSY^317 VNVQ (SEQ. ID NO: 27). Note that both peptides contain the same core (YVNV) but (SEQ. ID NO: 3) different upstream sequences. The initial rapid increase in the response is due to the "bulk effect" of the injected solution.
In vitro binding studies using GST-fusion protein. The region of the Grb2 cDNA corresponding to its SH2 domain (from nucleotide position 256 to nucleotide position 551) was isolated using polymerase chain reaction (PCR) and cloned into the BamHI-EcoRI sites of the bacterial expression plasmid pGEX-2T (GST-Grb2). Cultures of bacteria expressing GST, GST-Grb2 or GST-Shc (Segatto et al., Oncogene 2105-2112 (1993)) were grown for 3-4 hours at 37° C. in LB medium containing 1 mM IPTG. Bacteria were centrifuged, resuspended in 1/100 volume of ice-cold PY buffer, without Triton™ and lysed by sonication. After adding Triton X-100 to 1%, lysates were clarified by centrifugation. Recombinant proteins were purified onto glutathione Sepharose™ (Pharmacia) and used as such for binding assays. For each reaction, about 5 μg of GST, GST-Grb2 or GST-Shc bound to glutathione Seharose was incubated for 2 hrs. at 4° C. with […] of appropriate cell lysate made in PY buffer. Protein complexes were washed 5 times in ice cold PY buffer, eluted and denatured by heating at 95° C. for 3 min in Laemmli buffer, resolved on SDS-PAGE and analyzed by immunoblot.
The basic principles of operation as well as the methodology for obtaining kinetic measurements of SH2 domain interactions using the BIAcore instrument (Pharmacia) have been previously described in detail (Panayotou et al., Mol. Cell. Biol. 13: 3567-3576 (1993), Ponzetto et al., Mol. Cell. Biol. 13: 4600-4608 (1993)). Purified GST-SH2 domains or intact proteins were desalted in BIAcore running buffer (20 mM Hepes, pH 7.4, 150 mM NaCl, 3.4 mM EDTA, 0.005% Tween 20 and 4 mM DTT) and injected over avidin-immobilized, biotinylated phosphopeptides. The amount of phosphopeptides immobilized was normalized by measuring the binding of anti-phosphotyrosine antibodies. Association was measured over a range of protein concentrations and dissociation of bound material was allowed to occur either in buffer flow or upon injection of 20 μM competing, non-biotinylated phosphopetide. Peptide and protein concentrations were calculated by amino acid analysis on an Applied Biosystem amino acid analyzer.
The direct interaction between the SH2 domain of Shc and phosphotyrosine Y^1349 or Y^1356 was confirmed by real-time Biosensor analysis (Panayotou et al., ibid; Felder et al., Mol. Cell. Biol. 13: 1449-1455 (1993)).
The Shc sequence Y^317 VNV (SEQ. ID NO: 3) is identical to one of the two Shc binding sites present in the SF/HGF receptor (FIG. 8). […] The biosensor was used to compare binding of the Shc SH2 domain to the phosphopeptide DDPSY^317 VNVQ (SEQ. ID NO: 27), present on the Shc molecule, and to the phosphopeptide VNATY^1356 VNVK (SEQ. ID NO: 28), present on the SF/HGF receptor. […] Thus Shc-Shc association is not favoured in vivo, and the Shc phosphotyrosine residue Y^317 is available to bind other molecules, rather than to mediate the formation of concatamers.

[1] = biological target: T2, binding of p85 to HGF/SF receptor (Bos taurus, UniProt P23727); test: Competition of phosphopeptides with p85 for association with immobilized recombinant HGF/SF receptor (in vitro kinase assay readout); parameters: species or system human; conditions: phosphopeptide 10 μM; p85 from Sf9 lysates; FIG. 1
T2 construct: made in house; host or cells: Sf9 insect cells (baculovirus), for both p85 and the receptor
T2 sequence (P23727 whole entry): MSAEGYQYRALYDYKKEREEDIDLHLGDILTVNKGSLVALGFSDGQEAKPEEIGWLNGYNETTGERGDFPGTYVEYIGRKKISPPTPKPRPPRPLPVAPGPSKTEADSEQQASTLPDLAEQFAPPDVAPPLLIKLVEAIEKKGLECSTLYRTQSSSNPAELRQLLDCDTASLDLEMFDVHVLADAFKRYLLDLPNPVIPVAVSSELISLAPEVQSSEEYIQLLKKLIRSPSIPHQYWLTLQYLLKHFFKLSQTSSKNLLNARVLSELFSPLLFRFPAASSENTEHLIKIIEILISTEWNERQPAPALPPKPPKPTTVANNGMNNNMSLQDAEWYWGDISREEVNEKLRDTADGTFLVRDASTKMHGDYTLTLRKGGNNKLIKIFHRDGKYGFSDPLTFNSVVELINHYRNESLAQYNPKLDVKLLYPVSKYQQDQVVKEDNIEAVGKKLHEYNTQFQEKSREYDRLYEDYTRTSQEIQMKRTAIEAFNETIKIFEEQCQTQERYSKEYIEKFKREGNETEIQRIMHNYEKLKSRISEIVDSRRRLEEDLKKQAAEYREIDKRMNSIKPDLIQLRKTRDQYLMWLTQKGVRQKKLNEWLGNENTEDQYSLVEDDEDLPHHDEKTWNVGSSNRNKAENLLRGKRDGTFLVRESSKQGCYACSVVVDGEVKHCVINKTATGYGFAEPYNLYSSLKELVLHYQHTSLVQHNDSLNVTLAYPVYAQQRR
Experimental: FIG. 1. Inhibition of binding of p85 to HGF/SF receptor by tyrosine-phosphorylated peptides. Recombinant HGF/SF receptor was purified by immunoprecipitation from baculovirus-infected Sf9 cells using a rabbit polyclonal antiserum and phosphorylated with cold ATP. Lysates of Sf9 cells expressing p85 were pre-incubated with each of the phosphopeptides (10 μM). The lysates were then allowed to associate with immobilized recombinant HGF/SF receptors. Following association the complex was washed and receptor-bound p85 was detected by an in vitro kinase assay, as described in Materials and Methods of Example 4. The phosphopeptides are identified by the number of the amino terminal tyrosine.
FIG. 2. Inhibition of binding of p85 to HGF/SF receptor with different concentrations of tyrosine-phosphorylated peptides. The phosphopeptides which efficiently out-competed p85 binding to the HGF/SF receptor (FIG. 1) were used at increasing concentrations (10 nM, 100 nM, 1 μM from left to right) to define their relative affinities for p85. Conditions of the experiment were as in FIG. 1. Phosphopeptide 1365 was used as a negative control for p85 interaction.
In vitro association experiments. Sf9 cells expressing the recombinant HGF/SF receptor (approximately 4×10^6 cells/point) were lysed 36 hours after infection in buffer A (10 mM Tris-HCl buffer pH 7.5, 10% glycerol, 1% Triton X-100, 150 mM NaCl, 5 mM EDTA), supplemented with 0.2 mM phenyl-methylsulfonyl fluoride, 1 μg/ml leupeptin, 0.1 TIU/ml aprotinin and 1 μg/ml pepstatin. Lysates were clarified at 15,000×g at 4° C. for 15 minutes and the supernatants immunoprecipitated after 2 hours incubation with anti-Met antibodies coupled to Protein A-Sepharose. Immunocomplexes were washed three times with buffer A, once with buffer B (10 mM Tris-HCl pH 7.4, 100 mM NaCl, 1 mM EDTA) and once with buffer C (25 mM 4-(2-hydroxyethyl)-1-piperazine-ethanesulfonic acid (HEPES) buffer pH 7.2, 100 mM NaCl, 5 mM MgCl2). Samples were pre-phosphorylated by incubation for 15 minutes at 25° C. in buffer C with 10 μM unlabelled ATP and then washed three times with cold buffer A supplemented with 1 mM sodium ortho-vanadate. Association between the immobilized receptor and the baculovirus-expressed p85 was carried out as previously described (Bardelli, A., et al., Oncogene 7: 1973-1978 (1992)). For the association experiments with the PI 3-kinase holoenzyme three days serum-starved A549 cells (approx. 2×10^6 cells/point) were used as a source of PI 3-kinase. A549 cells were Dounce-homogenized in MOPS buffer (20 mM 3-(N-morpholino)propanesulfonic acid) (pH 7.5), 1 mM MgCl2, 0.1 mM EDTA, 200 mM sucrose, 1 mM sodium ortho-vanadate), supplemented with 0.2 mM phenylmethylsulfonyl fluoride, 1 μg/ml leupeptin, 0.1 TIU/ml aprotinin and 1 μg/ml pepstatin. Homogenates were centrifuged at 100,000×g for 20 minutes at 4° C. When checking for the ability of phosphopeptides to block the association with the receptor, cell lysates were pre-incubated with the phosphopeptides for 1 hour at 4° C. prior to incubation with the immobilized recombinant HGF/SF receptor. Following association, immunocomplexes were washed three times with buffer A, twice with buffer D (0.5M LiCl, 100 mM Tris-HCl pH 7.6), and twice with buffer B.
The presence of the p85 subunit of the PI 3-kinase in the receptor immunoprecipitate was determined by: i) labelling of the receptor and associated proteins with [γ-^32 P]ATP by in vitro kinase assay; ii) Western immunoblotting; iii) PI 3-kinase activity assay.
In vitro kinase assay. Receptor-associated proteins were labelled in 20 μl of buffer C, in the presence of 10 μCi [γ-^32 P]ATP (specific activity 7,000 Ci/Mm; Amersham) at 25° C. for 15 minutes. The reaction was stopped by adding 1 ml of ice-cold Buffer A without protease inhibitors. Samples were washed three times with cold buffer A. The labelled immunocomplexes were eluted from Protein A-Sepharose in boiling Laemmli buffer. […]

H-Ile-Gly-Glu-His-Tyr*-Val-His-Val-Asn-OH (H-IGEHYVHVN-OH; not fully specified (residue 5); also: Tyr5 (Y*) may be phosphorylated or unphosphorylated, not settled) [IGEHY^1349* VHVN]
Affinity constant, ratio between dissociation rate (Kdiss) and association rate constants (Kass) (GST-SH2 domain of Shc): too high to be exactly determined

CC(C)C[C@H](NC(=O)[C@@H]1CCCN1C(=O)[C@H](CC(=O)O)NC(=O)[C@@H]1CCCN1C(=O)[C@H](CS)NC(=O)[C@@H](N)Cc1ccc(OP(=O)(O)O)cc1)C(=O)N[C@@H](Cc1ccc(O)cc1)C(=O)N[C@@H](CCC(=O)O)C(=O)O [H-Tyr*-Cys-Pro-Asp-Pro-Leu-Tyr-Glu-OH] (HELM PEPTIDE1{[N[C@@H](Cc1ccc(OP(=O)(O)O)cc1)C(=O)[*:2]].C.P.D.P.L.Y.E}$$$$V2.0)
Inhibition of binding of p85 to HGF/SF receptor [1]: only partially effective

H-Val-Asn-Ala-Thr-Tyr*-Val-Asn-Val-Lys-OH (H-VNATYVNVK-OH; not fully specified (residue 5); also: Tyr5 (Y*) may be phosphorylated or unphosphorylated, not settled) [VNATY^1356* VNVK]
Affinity constant, ratio between dissociation rate (Kdiss) and association rate constants (Kass) (GST-SH2 domain of Shc): too high to be exactly determined
Binding of Shc SH2 domain to immobilised phosphopeptide (GST-SH2 domain of Shc): specifically bound
Binding of Shc SH2 domain to immobilised phosphopeptide (GST-SH2 domain of Shc; listed as Y1356P): binds to the docking site of the SF/HGF receptor
